Test results reported in patent US20160011207A1, “DIAGNOSIS AND THERAPY OF CHRONIC INFLAMMATION-INDUCED DISORDERS” (VIRGINIA COMMONWEALTH UNIVERSITY, priority 2012, published 2016).
Entries after “also recorded” stand apart in the source; their conditions may differ.

Assays:
[1] = system: primary adipocytes, myoblasts and hepatocytes; assay: Insulin sensitizing effects of IGFBP-3 in cells treated with proteases and inhibitors (Example 7); format: cell-based; details: Example 7, written in present tense
From the text: The levels of the three NSPs and IGFBP-3 protease activity in sera from lean and obese mice fed with CD and HFD, respectively, for 16 weeks are investigated using Western immunoblotting, ELISAs and an IGFBP-3 protease activity assay. Further, the impact of PR3-induced proteolysis and inhibitors (Prolastin and a small peptide inhibitor) on insulin sensitizing effects of IGFBP-3 in primary adipocytes (Invitrogen/Life Technologies, Grand Islands N.Y.), myoblasts and hepatocytes (Eton Bioscience, Research Triangle Park, N.C.) is investigated. The cells are treated with IGFBP-3 or PR3 proteolyzed IGFBP-3 fragments with and without insulin, and analyzed for glucose uptake, levels of insulin receptor substrates (IRSs), glucose transporters (GLUTs), adiponectin (in adipocytes) and intracellular glycogen content (in hepatocytes) using a glucose uptake assay, qRT-PCR, Western immunoblotting and a glycogen assay kit. Further experiments are performed to treat cells with IGFBP-3 and PR3 in the presence and absence of Prolastin or the small peptide inhibitor(s) described herein. The inhibitory effects of NE and CG on IGFBP-3's insulin-sensitizing effects are also determined using similar laboratory methods. The involvement of IGFBP-3R on the insulin signaling pathway is also investigated by manipulating endogenous IGFBP-3R expression using IGFBP-3R siRNAs. […]

NE = molecular target: T1, NE (Homo sapiens, UniProt P08246); assay: In vitro IGFBP-3 proteolysis by NE, Western immunoblotting; format: biochemical; details: recombinant IGFBP-3 100 ng; NE 70 nM, 20 min at 37° C.; FIG. 9B
T1 sequence (P08246 30-267): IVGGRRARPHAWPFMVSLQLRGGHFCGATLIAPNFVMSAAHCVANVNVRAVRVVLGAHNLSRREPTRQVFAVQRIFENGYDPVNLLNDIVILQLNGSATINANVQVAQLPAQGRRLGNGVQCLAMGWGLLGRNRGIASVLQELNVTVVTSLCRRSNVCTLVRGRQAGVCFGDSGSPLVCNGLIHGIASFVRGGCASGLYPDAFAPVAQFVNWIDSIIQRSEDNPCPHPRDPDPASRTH
Procedure: Inhibitory effect of the small peptide on NSP-induced IGFBP-3 proteolysis. […] B. In vitro IGFBP-3 proteolysis by NE and CG. […] Recombinant IGFBP-3 (100 ng) was proteolyzed by treatment with NE (70 nM) and CG (200 nM) for 20 min. at 37° C. The treated samples were subject to Western immunoblotting using polyclonal IGFBP-3 antibodies.

CG = molecular target: T2, CG (Homo sapiens, UniProt P08311); assay: In vitro IGFBP-3 proteolysis by CG, Western immunoblotting; format: biochemical; details: recombinant IGFBP-3 100 ng; CG 200 nM, 20 min at 37° C.; FIG. 9B
T2 sequence (P08311 21-244): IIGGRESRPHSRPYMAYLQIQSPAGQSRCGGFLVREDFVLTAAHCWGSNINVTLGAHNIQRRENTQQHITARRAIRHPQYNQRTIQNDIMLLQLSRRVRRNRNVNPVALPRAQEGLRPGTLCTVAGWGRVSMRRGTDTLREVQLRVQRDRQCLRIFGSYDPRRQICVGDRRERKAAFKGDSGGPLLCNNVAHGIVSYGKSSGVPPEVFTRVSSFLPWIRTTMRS
Procedure: (§1) FIG. 9A-C. Inhibitory effect of the small peptide on NSP-induced IGFBP-3 proteolysis. […] Recombinant IGFBP-3 (100 ng) was proteolyzed by treatment with 100 nM PR3 for 60 min at 37° C. (lane 3). […] B. In vitro IGFBP-3 proteolysis by NE and CG. […] Recombinant IGFBP-3 (100 ng) was proteolyzed by treatment with NE (70 nM) and CG (200 nM) for 20 min. at 37° C. The treated samples were subject to Western immunoblotting using polyclonal IGFBP-3 antibodies. NE and CG proteolyze IGFBP-3 (lanes 2 and 7). […] C. The sequence of small inhibitory peptide (LIRCAML). Putative small inhibitory peptide binding site on PR3 ([…]) and NE ([…]), of which sequences are well conserved in both PR3 and NE.

NSPs (PR3/NE/CG) = assay: In vitro IGFBP-3 protease assay with NSPs and inhibitors (Example 5); format: biochemical; details: recombinant IGFBP-3, NSPs (PR3/NE/CG); example written in present tense
From the text: Since PR3, NE and CG appear to be involved in inflammation and metabolic disorders, all three proteases are characterized with respect to IGFBP-3 proteolysis in vitro.

PR3 = molecular target: T3, PR3 (Homo sapiens, UniProt P24158); assay: In vitro IGFBP-3 proteolysis by PR3, Western immunoblotting; format: biochemical; details: for inhibition of PR3-induced IGFBP-3 proteolysis (Western immunoblot, in words): FIG. 8 and 9A
T3 sequence (P24158 28-248): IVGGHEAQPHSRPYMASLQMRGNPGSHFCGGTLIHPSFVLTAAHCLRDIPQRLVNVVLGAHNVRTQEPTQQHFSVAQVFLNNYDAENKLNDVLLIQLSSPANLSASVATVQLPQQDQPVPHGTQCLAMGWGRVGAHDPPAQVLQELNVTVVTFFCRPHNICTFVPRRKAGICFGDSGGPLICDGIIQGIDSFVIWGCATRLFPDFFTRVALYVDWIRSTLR
Procedure: FIG. 4A-B. A, increased serum PR3 and IGFPR-3 proteolysis in high fat diet (HFD) mice. The increased IGFBP-3 proteolytic fragments and PR3 were detected in HFD compared with chow diet (CD) fed mice by Western immunoblotting using mouse IGFBP-3 or PR3 specific antibodies. […] IGFBP-3 proteolytic fragments were detected in recombinant IGFBP-3 (100 ng) and PR3 (500 ng) treated samples by Western immunoblotting.
FIG. 8. […] Recombinant IGFBP-3 (100 ng) was proteolyzed by treatment with […] PR3 for 60 min. at 37° C. (lane 2).
as §1
Since it has been reported that PR3 appears to contribute to progression of chronic inflammatory diseases, we characterized PR3 as a specific IGFBP-3 protease in obese condition. The experiments were carried out using recombinant PR3 and IGFBP-3, and Western immunoblotting with IGFBP-3 specific antibody.
This peptide and/or suitable variants thereof can thus be used to treat individuals with chronic inflammation (obesity)-induced insulin resistance.

HFD C57BL/6 mice = assay: Insulin tolerance test (ITT) in HFD-induced obese mice (Example 6); format: in vivo; details: 60 mg/kg AAT for 7 weeks, 0.75 unit/kg insulin i.p., 15, 60, 90 and 120 min after insulin, p<0.05
Procedure: FIG. 10. Insulin tolerance test (ITT).
Assessment of body weight, fed and fasting glucose, intraperitoneal glucose tolerance test (IPGTT) and insulin tolerance test (ITT) were performed at 8, 15 weeks of HFD.
Weekly assessment of body weight was performed. IPGTT and ITT were analyzed at 8, 15 weeks of HFD.
Description of murine models: Six week old male C57BL6/J BomTac mice were obtained from Taconic, Hudson, N.Y., and kept at 22° C. on a 12:12-h light-dark cycle, with food and water ad libitum. All mice were placed on a normal rodent diet (ND) D12450B for 1 week and then divided into two groups and fed with ND and high fat diet (HFD) D12492 for 16 weeks. ND (D12450B, calories provided by fat 10%, protein 20%, Carbohydrate 70%) and HFD (D12492, calories provided by fat 60%, protein 20%, Carbohydrate 20%) were from Research Diets, new Brunswick, NJ52.
Insulin tolerance test (ITT): After a 7-day recovery period, an ITT was performed on the same mice. […]
Data Analysis: 1) Mice with HFD feeding and with/without NSP inhibitor treatments awere studied with assessment of body weight, fed and fasting glucose, IPGTT and ITT. Statistical analysis: Differences between groups are determined by ANOVA followed by Turkey post hoc tests or by Student t Test as appropriate. Significance is considered as p<0.05.

AOM-DSS-treated mice = assay: CAC mouse model, AOM-DSS-treated mice (Example 10); format: in vivo; details: AAT 60 mg/kg once weekly, Example 10, written in present tense
Procedure: Studies are also carried out to determine whether administration of the NSP inhibitor (Aralast) inhibits progression of CRC in a CAC mouse model.
First, serum NSPs, IGFBP-3 and IGFBP-3 proteolysis are determined during CRC development in AOM-DSS-treated mice with/without Aralast administration (60 mg/kg body weight once weekly) (6 mice/group). Serum NSPs (PR3,NE,CG), IGFBP-3, and proteolyzed IGFBP-3 and cytokines ([…], IL-6, IL-1β) are analyzed biweekly using Western immunoblotting, IGFBP-3 protease activity assays and mouse specific ELISAs (ELISA kits for PR3 from USCN life science; NE from Biotang USA; CG from CusaBio; TNF-α from Thermo Scientific; and IGFBP-3 from Sigma).
After sacrificing, mice colons are removed and flushed with phosphate-buffered saline (PBS) for macroscopic inspection. Tumor counts are performed in a blinded fashion. Tumor volume (V) is calculated […] by measuring length (L) and width (W) of the tumor with calipers and using the following formula: V={W×L×[(W+L)/2]}×0.52. Using paraformaldehyde fixed or fresh frozen tissue the proteins/genes involved in cell proliferation and inflammatory signaling are examined using Ki67 staining, apoptosis detection kit (Roche Dignostics GmbH) as well as immunoblotting and qRT-PCR for TNF-α, IL-6, IL-1β, NF-κB, IκBκ, IGFBP-3 and IGFBP-3R. […]

NSPs (PR3, NE, and CG) = assay: NSP-induced IGFBP-3 proteolysis with inhibitors (Example 10); format: biochemical; details: Example 10, written in present tense
From the text: The biological impact of NSPs (PR3, NE, and CG) on IGFBP-3 proteolysis and the antitumor actions of IGFBP-3/IGFBP-3R signaling is investigated, e.g. to characterize specific mechanisms by which NSPs modulate the biologic impact of IGFBP-3/IGFBP-3R on cell proliferation, apoptosis in CRC. Accordingly, the impact of NSPs on the antitumor and anti-inflammatory functions of IGFBP-3 in a variety of colon cancer cells (HT-29, Caco-2, HCT116 and LoVo) is investigated using recombinant IGFBP-3 (intact or NSP-proteolyzed fragments), NSPs and their inhibitors. The involvement of IGFBP-3R on IGFBP-3's effects is tested by manipulating endogenous IGFBP-3R expression using additional lentiviral-IGFBP-3-GFP, IGFBP-3R siRNAs, Adeno-IGFBP-3R, NSPs and protease inhibitors in the same cell systems.
Human and mouse specific IGFBP-3 antibodies (Abs)20, IGFBP-3R Abs20, IGFBP-3 protease assay, and adeno-, retro- and lenti-viral plasmids transfused with IGFBP-3, IGFBP-3R or their small hairpin RNAs (shRNAs) are utilized in these investigations.
The differential impact of intact IGFBP-3 and IGFBP-3 fragments on induction of apoptosis, cell proliferation in CRC cells is quantified using a Cell death assay, WST assay and qRT-PCR and immunoblotting.

[2] = recombinant IGFBP-3 100 ng, 100 nM PR3, 60 min at 37° C.

inhibition of IGFBP-3 proteolysis induced by 100 nM PR3 treatment (PR3; peptide at 0.5 μM, recombinant IGFBP-3 100 ng, 100 nM PR3, 60 min at 37° C.) | inhibitory effect on PR3 activity compared with AAT (PR3; peptide at 20 μM versus 100 nM AAT, 100 nM PR3) | Compound | effect on protease-induced IGFBP-3 proteolysis and inhibition of IGFBP-3's normal metabolic function [1] | inhibition of IGFBP-3 proteolysis by NE (in words) (NE) | inhibition of IGFBP-3 proteolysis by CG (in words) (CG) | NSP-induced proteolysis of IGFBP-3 (Example 5, in words) (NSPs (PR3/NE/CG)) | inhibition of PR3-induced IGFBP-3 proteolysis (Western immunoblot, in words) (PR3; [2]) | blood glucose levels in ITT versus PBS control (HFD C57BL/6 mice) | inhibition of PR3-induced IGFBP-3 proteolysis (FIG. 4B, in words) (PR3; recombinant IGFBP-3 (100 ng) and PR3 (500 ng)) | tumor incidence and size compared with untreated mice (AOM-DSS-treated mice) | NSP-induced proteolysis of IGFBP-3 (Example 10, in words) (NSPs (PR3, NE, and CG))
– | – | CC(C)[C@@H]1C(=O)N(S(C)(=O)=O)[C@@H]2CCN(C(=O)/C=C/CN3CCCCC3)[C@H]21.Cl [GW311616A, reference compound] | reverse this effect | – | – | – | – | – | – | – | –
more than 50% | comparable to that of 100 nM AAT | LIRCAML (Synthetic peptide inhibitor) | reverse this effect | inhibited IGFBP-3 proteolysis by NE or CG in a dose-dependent manner (0.5-1 μM) | inhibited IGFBP-3 proteolysis by NE or CG in a dose-dependent manner (0.5-1 μM) | blocked | potent inhibitory effect; also recorded: inhibited IGFBP-3 proteolysis in a dose-dependent manner (0.5-20 μM); also recorded: inhibited IGFBP-3 proteolysis in a does-dependent manner (0.05-1 μM) | – | – | – | –
– | – | α-1-antitrypsin [AAT] | – | – | inhibited | blocked | inhibited | significantly lower | completely inhibited; also recorded: Few IGFBP-3 proteolytic fragments were detected | decreases tumor incidence and size | blocked
